Target: Dob3 (Nocardia ninae)
Experiment: SEC; Superdex 200, 20 mM HEPES pH 8.0, 10 mM MgCl2, 50 mM NaCl, 10% glycerol; compared with Bio-Rad gel filtration standards

A stoichiometry N of 2 was found for Dob3 (enzyme) in this work.

From publication PMC13061610
